Measured values: the nanobody polyreactivity screen of Harvey et al. (2022)

Assay: yeast display, Sf9 membrane polyspecificity reagent, FACS + sequencing; frameworks hold sequencing errors
Summary of the method: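 Nanobodies came from a synthetic yeast display library in Saccharomyces cerevisiae BJ5465, induced with galactose for 36–48 hours and stained for 1 hour at 4 °C with 10% biotinylated, detergent-solubilized Sf9 membrane reagent. Cells were enriched on streptavidin microbeads and then FACS-sorted, with low and high (top ~1%) gates set on anti-HA fluorescence for expression and streptavidin fluorescence for reagent binding. Each polyreactivity label reflects the gate a clone came from. Genes were amplified by colony PCR, sequenced by MiSeq 2 × 250 and filtered by CDR length.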

| Sequence | polyreactivity (PSR sort gate) |
| --- | --- |
| QVQLVESGGGLVQAGGSLRLSCAASGRIFWANAMGWYRQAPGKERELVAAISNSGVSTYYADSVKGRFTISRDNAKHTVYLQMNSLKPEDTAVYYCAADRYRKYYYWGQGTLVTVSS | high polyreactivity |
| QVQLVESGGGLVQAGGSLRLSCAASGSTFYWYTMGWYRQAPGKERELVATITSVGRTNYADSVKGRFTISRDNAKNTVYLQMNSLKPEDTAVYYCAADSYSYRYYYWGQGTQVTVSS | high polyreactivity |
| QVQLVESGGGLVQAGGSLRLSCAASGSTFFDYAMGWYRKAPGKERELVAAISRSGDTNYADSVKGRFTISRDNAKNTVYLQMKSLKPEDTAVYYCAKDWAYRRHWVGFYYWGQGTQVTVSS | low polyreactivity |
| QVQLVESGGGLVQAGGSLRLSCAASGIIFFLYAMGWYRQAPGKERELVAAISSGGSTYYADSVKGRFTISRDNAKNTVYLQMNSLKPEDTAVYYCAVVGYASRYEKYYYWGQGTQVTVSS | high polyreactivity |
| QVQLQESRGGLVQAGGSLRLGFAASGNISDAGNKGWYRQAPGKEREFVAAIAAGSNTNYADSVKGRFTISRDNAKNTVYLQMNSLKPEDTAVFYCAVAYYARLQYEYWGQGTQVTVKS | low polyreactivity |
| QVQLVESGGGLVQAGGSLRLSCAASGSIFVGNAMGWYRQAPGKEREFVASISWDGTTYYADSVKGRFTISRDNAKNTVYLQMNSLKPEDTAVYYCAADVSTYGAQATEGTDLEYDYWGQGTLVTVSS | low polyreactivity |
| QVQLVESGGGLVQAGGSLRLSCAASGRIFYRYAMGWYRQAPWKEWELVADISSGTSTNYADSVKGRFTLSRDNAKNTVDLQMNSLKPEDTAVYYCAADEVRSAWRCSSPPDYDHWGQGTQVTVSS | low polyreactivity |
| QVQLVESGGGLVQAGGSLLLSCAASGSLFYRYAMGWYRQAPGKERELVAAISWGGGRTYYADSVKGRFTISRDNAKNTVYLQMNRLKPEDTAVYSCNREKYVRWIREDYDYWGQGTQVTVSS | high polyreactivity |
| QVQLVESGGGLVQAGGSLRLSCAASGRTFYGYAMGWSRQAPGKERELVAAISWTGGRTYYADSVKGRFTISRDNAKNTVFLQMNSLKPEDTAVYYCNARRRGDSGDGYIYGYWGQGTQVTVSS | high polyreactivity |
| QVQLVESGGGLVQAGGSLRLSCAASGSTFYIYAMGWYRQAPGKERELVAAITSRGTITSYADSVKGRFTISRDNAKNTVYLQMNSLKPEDTAVYYCAADYWQDGIAYWYDYWGQGTQVTVSS | low polyreactivity |
| QVQLVESGGGLVQAGGSLRLSCAASGLTFYYYAMGWYRQAPGKERELVAAISCSGGSTYYADSVKGRFTISRDNAKNTVYLQMNSLKPEDTAVYYCAAEGDYFLWYRYDYWGQGTQVTVSS | high polyreactivity |
| QVQLVESGGGLVQAGGSLRLSCAASGNILYANAMGWYRQAPGKERELVATINVSADSTYADSVKGRFTISRDNAKNTVYLQMNRLNPEDTAVYYCNAYGLYEKWGPWTVPYYYWGQVTQVTVSS | low polyreactivity |
| QVQLVESGGGLVKAGGSLRLICDASGRTFYSYAMGWYRQAPGKERELVAAINTSGGRTHYADSVKGRFTISRDNAKYTVYLHMNSLKAEDTAVYYCAAERKNKYDYWGQGTQVTVSS | high polyreactivity |
| QDQHVESGGGLVQAGGSLRLSFAASGRIFRYYAMRWYRQAPGKDRELVAAIRWTAGSTYYADSVKVRFTISRDNAKNTVYLQMNSLKPEDPAVYYCATDVWKYGRYEYWVQGTQVTVSS | low polyreactivity |
| QVQLVESGGGIVQAGRSLRLSCSASGFIFAIKAMGWYRQAPGKERELVAAITGGGSTSYADSVKGRFTISRDNAKNTVYLQMNSLKPEDTAVYYCATDRLTYTKYGYWGQGTQVTVSS | low polyreactivity |
| QDQLVESGGGLVQAGGIHRLICDSSGFIFWDNAMGCSRQAPGKEREFVAAISQRCTRTYYADSVKGRFTISRDNAKKTVFFPLNSLKPEDTGVYYCNRGGWRQFDSWGQGTQVTVSS | high polyreactivity |
| QVQLVETRGGLVQAGGSLRFSCAPSGRISLIYDMGWYRQAPAKERELVASITWSGDSTYYADSVKGRFTNSRDNAKNTVYLQMNSLKPVDTAVYYCAAVCWTYEYWEWYDYWGQVTQVTVSS | high polyreactivity |
| QVQHVESGGGIVQAGGSLRLSCAASGSTFSGYAMGWYRQAPGKERELVASISSGGRTTYADSVKGRFTISRDNAKNTVYLQMNSLKPEDTAVSYCAKRIRPGYARLYSWGQGTQVTVSS | high polyreactivity |
| QVKLQESGGGLVQAGGSLRLSCAASGYIFLHYYMGWYRQAPGKEREFVAGITSGTNTNYADSVKGRFTIRDNAKNTVYLQMNSLKPEDTAVCYCAVTYPYWGDYTYWGQGTQVTVSS | low polyreactivity |
| QVQLVESGGGLVQAGGSLRLSCAASGYIFGWNAMGWYRQAPGKERELVAAISSSGGNTYYADSVKGRFTISRDNAKNTVYLQMNSLKPEDTAVYYCARSYPYRYDYWGQGTQVTVSS | low polyreactivity |
| QVQLVESGGGLVQAGGSLRLSCAASGRIFPPYAMGWYRQAPGKERELVAAISSSTTSTYYADSVKGRFTISRDNAKNTVYLQMNSLKPEDTGVYYCAAQPYRAAFPYSSRRHLQYEYWGQGTQVTVSS | low polyreactivity |
| QVQLVESGGGLVQAGGSLRLSCAASGSTFWGYAMGWYRQAPGKERELVATINQSAGSTYYADSVKGRFTISRDNAKNTVYLQMNSLKPEDTAVYYCAAEARVQFSYDYWGQGTQVTVSS | low polyreactivity |

| Sequence | polyreactivity (PSR sort gate) |
| --- | --- |
| QVQLVESGGGLVQAGGSLRLSCAASGRNFTSNAMGWYRQAPGKERELVAAITQSGGSTYYADSVKGRFTISRDNAKNTVYLQMNSLKPVDTAVYYCNAETTGRTEYNYWGQGTQVTVSS | low polyreactivity |
| QVQLVESGGGLVQAGGSLRLSCAASGYTVYANAMGWYRQAPGKEREFVASITWSGGSTYYADSVKGRFSISRDNAKNPVYLQMNSLKPEDTAVYYCAAESWFKYDYWGQGTQVTVSS | low polyreactivity |
| QVQLVESGGGLVQAGGSLRLSCAASGSTFTKYAMGWYRQEPGKDREFVAGINYSGGSTYYADSVKVRFTISRDNAKNTVYLLMKSLKPEDTAVYYCNARKQNRRGAKYDYWGQGTQVTVSS | high polyreactivity |
| QVQLVESGGGLDQAGGSLRLSCAASGSTFARNVMGWYRLAPGKERELVAAISWRGGRTYYADSVKGRFTISRDNAKNTVYLQMNSLKPEDTAVYYCAAGRSFRGSYWYEYWGQGTQVTVSS | high polyreactivity |
| QVQLVESGGGLVQAGGSRRLSCAASGRTLGHNAMGWYRQAPGKERELVAAITSRGGTTYADSVKGRFTISRDNAKNTVYLQMNSLTPEDTAVYYCAARGYAYSRYYFWGQGTQVTVSS | high polyreactivity |
| QVQLVESGGGLVQAGGSLRLSCAASGRIFYHNARGWYRQAPGKERELVAAIYSTGGSTYYADSVKGRFTISRDNAKNTVYLQMNSLKPEDTAVYYCATQYFRKYGYDYWGKGTQVTVSS | low polyreactivity |
| QVQLVESGGGLVQAGGSLRLSCAASGLIFGYYAMGWYRQAPGKERELVAVISYSGGSTYYADSVKGRFTITRDNAKNTVYLQMNSLNPEDTAVYYCNTYGAYYRHTKEYGYWGQGTQVTVSS | high polyreactivity |
| QVQLVDSGGGLVQAGGSLRLSCAASGSITYYAMGWYRQAPGKERELVAAISSSGGSTYYADSVKGRFTISRDNAKNTVYLQMNSLKPEDTAVYYCAAYGRYGAHTGYGSWGQGTQVTVSS | high polyreactivity |
| QVQLVESGAGIVQAGGSHRLSCAASGFIFFGYAAMEWYRQAPGKERELVAAISWSGGSTYYADSVKGRFTISRDHAKYTVYLQMNSLKPEDTAVYYCNAVYLKLYPWLDYWGQVTQVTVSS | low polyreactivity |
| QVQLVESGGGLVQAGGSLRLSCAASGFTFFLYAMGWYRQAAGKERELGAAINSRGGSTYYADSVKGRFTLSRDNAKNTVYLQMNSLKPEDTAVYYCAAYIPRSYCGYDYGGQGTQVTVSS | high polyreactivity |
| QDQLVESGGGLVQAGGSLRLSCAASGFIFDTYAMGWYRQAPGKERELVAVISSGGSTYYADSVKGRFTISRDNAKNTVYLQMNSLKPEDTAVYYCAADSGYLGIYGDEYSWGQGTQVTVSS | low polyreactivity |
| QVQLVESGGGLVQAGGTLRLSCAASGGIFGGYAMGWYRQAPGTEGELVAVITSGGSTYYADSVKGRFTISRDNAKNTVYLQMNSLKPEDTAVYYCAADGHSYSYSTYDYWGQGTQVTVSS | low polyreactivity |
| QVQHVESGGGLVHAGGSLRLSCAASGSIASYAMGWYRHATGKEKELVAGISWSGGSTYYADSVKGRFTISRDNAKNNVYLQMISLKPEDTAVYYCAARRFCPNRDSRMGYWGQGTQVTVSS | high polyreactivity |
| QVQLVESGGGLVQAGGSLRLSCAASGRIFFSYAMGWYRQAPGKERELVAAINGRGGSTYYADSVKGRFTISRDNAKNTVYLQMNSLKPEDTAVYYCAATAFSKGSSWKPYYYWGQGTQVTVSS | low polyreactivity |
| QVQLVESGVGLVQAGGSLRLSCAASGLIFYKYAMGWYRQAPGKERELVAAITRGGGSTSYADSVKGRFTISRDNAKNTVYLQMNSLKPEDTAVYYCNAAPYTRALQGEFDYWGQGTQVTVSS | high polyreactivity |
| QVQLVESGGGLVQAGGSLRLSCAASGSTFTTYAMGWYRQAPGKESELVAAITWSVGSTYYADSVMGRFTISRDNAKNTVYLQMNSLKPEDTAVYYCAADPTGGVGFDGYYWGQGTQVTVSS | low polyreactivity |
| QVQLVESGGGLVQAGGSLRLSCAASGRIFQVNAMGWYRQAPGKERELVAAITYSGGTTYYADSVKGRFTISRDNAKNTVYLQMNSLKPEDTAVYYCNAEYRWPYWGQWYFKGYDYWGQGTQVTVSS | low polyreactivity |
| QVLLVDSGGGLVQAGGSLRLSCAASGRIFGPYTMARYIQAPGPERELVAAISWSGGSTYYADSVKGRFTISRDNAKNNVFLQMNSLKPEDSAVYYCNAYHPFPQYEGGSWGQGTQVTVSS | low polyreactivity |
| QVQLVESGGGLVQAGGSLRLSCAASGSTFYQYAMGWYRQAPGKERELGAAITRSGGSTYYADSVKGRFTISRDNAKNTVYLQMNSLKPEDPAVYYCAADRARRGIRDYYWGQGTQVTVSS | high polyreactivity |
| QVQLVESGGGLVQAGRSHRLSCAASGFTFFDNAMGWYRQAPGKERELVAAITWSDGSTYYADSVKGRFTISRDNAKNTVYLQMNSLKPEDTAVYYCNKRGWWDLRHDYWGQGTHVTVSS | low polyreactivity |
| QVQLVESGGGLVQAGGSLRLSCAASGRTFAYNAMGWYRQAPGKERELVADITWSGDSTYYADSVKGRFTISRDNAKNTVYLQMNSLKPEDTAVYYCAADYFGGPSYEFDYWGQGTQVTVSS | low polyreactivity |
